Source: patent US10562947B2, “Compositions and methods for preventing or treating diseases, conditions or processes characterized by aberrant fibroblast proliferation and extracellular matrix deposition” (MOERAE MATRIX, INC., priority 2011, dated 2020)
Where a SMILES comes first, the peptide text is derived from it.

Assays:
phospho-Thr^334-MAPKAPK2 = assay: Activated MK2 immunostaining of lung sections, bleomycin treatment model; assay type: in vivo, mouse; settings: 50 μg/kg daily IP or NEB, day 14 to 28
Text: Briefly, C57-BL/6 mice were subjected to bleomycin injury at day 0. […] Formalin-fixed lung tissue sections were immunostained against phospho-Thr^334 MK2. Control staining was with biotinylated secondary IgG antibody. Streptavidin-conjugated horseradish peroxidase was used with 3,3′-diaminobenzidene as substrate and nuclei was counterstained with hematoxylin.

IL-6 = assay: Circulating inflammatory cytokines, bleomycin treatment model; assay type: in vivo, mouse; settings: intraperitoneal or nebulized; 24 hours after final administration
MK2 phosphorylation = MK2 phosphorylation in intact airway smooth muscle, immunoblot; design: species or system human; settings: 200 μM pre-treatment for 30 min
Description: (A) Representative tracings of force generation. Cumulative contractile responses to CCH (B) and % relaxation to ISO doses (C). n=4; p<0.05. Inset is an immunoblot showing MK2 phosphorylation level. HASM was hung in the muscle bath and frozen. MK2 phosphorylation was determined by SDS PAGE and immunoblotting.

c-RAF(h) = c-RAF(h) (Homo sapiens, UniProt P04049); assay: Kinase Profiling Assay; assay type: biochemical; settings: 100 μM peptide
Outline: (§1)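 Duplicate activity readings per kinase; peptide inhibitors of MK2 profiled against 266 human kinases for selectivity.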

CK1γ1(h) = CK1γ1(h) (Homo sapiens, UniProt Q9HCP0); assay: Kinase Profiling Assay; assay type: biochemical; settings: 100 μM peptide
CK1γ1(h), sequence (Q9HCP0 whole entry): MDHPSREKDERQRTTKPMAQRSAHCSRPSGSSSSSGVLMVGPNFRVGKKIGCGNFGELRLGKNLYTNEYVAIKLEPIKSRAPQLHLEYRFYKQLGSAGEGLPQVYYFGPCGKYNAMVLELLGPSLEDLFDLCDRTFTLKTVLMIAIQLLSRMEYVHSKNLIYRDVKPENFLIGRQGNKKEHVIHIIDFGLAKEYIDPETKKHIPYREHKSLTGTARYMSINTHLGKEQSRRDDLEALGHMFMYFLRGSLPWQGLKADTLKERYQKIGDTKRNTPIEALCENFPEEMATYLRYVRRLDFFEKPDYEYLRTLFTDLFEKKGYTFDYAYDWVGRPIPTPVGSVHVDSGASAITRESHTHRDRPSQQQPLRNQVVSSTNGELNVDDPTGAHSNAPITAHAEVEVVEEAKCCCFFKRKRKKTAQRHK
Outline: as §1

Plk1(h) = biological target: T1, Plk1(h) (Homo sapiens, UniProt P53350); assay: Kinase Profiling Assay; assay type: biochemical; settings: 100 μM peptide
T1 construct: purchased Millipore (IC50 Profiler Express service)
T1 sequence (P53350 whole entry): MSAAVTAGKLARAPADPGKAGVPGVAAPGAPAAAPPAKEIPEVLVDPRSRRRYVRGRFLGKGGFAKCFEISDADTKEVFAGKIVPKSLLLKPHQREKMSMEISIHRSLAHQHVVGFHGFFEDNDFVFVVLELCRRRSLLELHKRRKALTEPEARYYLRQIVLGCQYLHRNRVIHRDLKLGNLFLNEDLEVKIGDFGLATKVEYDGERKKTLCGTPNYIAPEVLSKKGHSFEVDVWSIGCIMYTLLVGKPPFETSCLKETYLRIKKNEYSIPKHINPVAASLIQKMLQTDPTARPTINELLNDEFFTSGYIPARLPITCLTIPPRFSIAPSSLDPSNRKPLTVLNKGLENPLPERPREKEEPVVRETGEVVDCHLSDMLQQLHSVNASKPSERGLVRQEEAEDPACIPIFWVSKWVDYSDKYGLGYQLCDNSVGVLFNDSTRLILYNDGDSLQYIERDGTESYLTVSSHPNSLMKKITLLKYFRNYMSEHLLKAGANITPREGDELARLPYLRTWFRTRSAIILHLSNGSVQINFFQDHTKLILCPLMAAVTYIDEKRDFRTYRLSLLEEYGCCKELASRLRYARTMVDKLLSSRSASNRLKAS
Outline: as §1

CLK2(h) = CLK2(h) (Homo sapiens, UniProt P49760); assay: Kinase Profiling Assay; assay type: biochemical; settings: 100 μM peptide
CLK2(h), sequence (P49760 whole entry): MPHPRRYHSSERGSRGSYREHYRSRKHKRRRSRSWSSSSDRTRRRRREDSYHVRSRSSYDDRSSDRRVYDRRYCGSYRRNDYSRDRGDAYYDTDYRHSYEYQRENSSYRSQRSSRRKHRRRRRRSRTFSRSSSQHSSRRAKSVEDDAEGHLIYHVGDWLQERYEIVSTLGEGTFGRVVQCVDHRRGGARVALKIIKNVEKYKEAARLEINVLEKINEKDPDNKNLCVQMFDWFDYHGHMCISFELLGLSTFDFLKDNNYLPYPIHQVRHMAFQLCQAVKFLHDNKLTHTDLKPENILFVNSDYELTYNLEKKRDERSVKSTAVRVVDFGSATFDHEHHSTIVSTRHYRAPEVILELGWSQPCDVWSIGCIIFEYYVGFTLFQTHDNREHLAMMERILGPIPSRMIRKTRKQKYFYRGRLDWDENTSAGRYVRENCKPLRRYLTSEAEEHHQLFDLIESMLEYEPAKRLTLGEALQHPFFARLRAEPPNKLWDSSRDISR
Outline: as §1

CC(C)C[C@H](NC(=O)[C@H](C)NC(=O)[C@H](CCCCN)NC(=O)[C@H](C)NC(=O)[C@H](CCCNC(=N)N)NC(=O)[C@H](C)NC(=O)[C@H](CCC(N)=O)NC(=O)[C@H](CCCNC(=N)N)NC(=O)[C@H](C)NC(=O)[C@H](C)NC(=O)[C@H](C)NC(=O)[C@H](CCCNC(=N)N)NC(=O)[C@H](C)NC(=O)[C@@H](N)Cc1ccc(O)cc1)C(=O)N[C@@H](C)C(=O)N[C@@H](CCCNC(=N)N)C(=O)N[C@@H](CCC(N)=O)C(=O)N[C@@H](CC(C)C)C(=O)NCC(=O)N[C@H](C(=O)N[C@@H](C)C(=O)N[C@@H](C)C(=O)O)C(C)C [MMI-0100] (H-YARAAARQARAKALARQLGVAA-OH; N-terminus and C-terminus assumed)
activated MK2 (phospho-Thr^334-MAPKAPK2) staining (phospho-Thr^334-MAPKAPK2): decreased phospho-Thr^334-MAPKAPK2 staining | plasma level of IL-6 (IL-6): significantly reduced | MK2 phosphorylation level (MK2 phosphorylation): reduced MK2 phosphorylation

HRRIKAWLKKIKALARQLGVAA (Mammalian) [MMI-0500]
c-RAF(h) % activity (c-RAF(h)): 19%

YARAAARQARAKALNRQLGVA (Mammalian) [MMI-0200]
CK1γ1(h) % activity (CK1γ1(h)): 98% | Plk1(h) % activity (Plk1(h)): 128% | CLK2(h) % activity (CLK2(h)): 97%
